Source: patent publication US5770577

molecular target: trkB

| Activ. in vitro (MTS tetrazolium uptake by PC12/pcDneo-trkB#18 cells) | Substance |
| --- | --- |
| 73% | monoMPEG(20 kDa)-BDNF conjugate with site of attachment at the N-terminal alpha-amino group(s) (Example 2) (ligand) |
| 100% | r-metHuBDNF (ligand) |
| 25% | polyMPEG(6 kDa)-BDNF conjugates with MPEG aldehydes, six-fold molar excess (Example 4) (ligand) |
| 101% | monoMPEG(6 kDa)-BDNF conjugate with site of attachment at the N-terminal alpha-amino group(s) (Example 1) (ligand) |
